Measured values as given in article PMC4587843, “Vascular Smooth Muscle Cells Stimulate Platelets and Facilitate Thrombus Formation through Platelet CLEC-2: Implications in Atherothrombosis” (PLoS ONE, 2015).

Legend:
[1] = molecular target: native CLEC-2 on the surface of murine platelets (mouse (endogenous in platelets)) (UniProt Q9JL99)
[2] = molecular target: T1, recombinant extracellular domain of human CLEC-2 expressed as a dimeric rabbit immunoglobulin Fc domain … (human, UniProt Q9P126 55-229); experiment: SPR; hCLEC-2-rFc2 and control rFc2 amine-coupled to a CM5 chip, Biacore X; S100A13 in modified Tyrode's buffer with 1 mM CaCl2 perfused at 20 uL/min, 25 C; control surface subtracted; Kd by BIAevaluation; settings: both partners purified
T1 construct: CLEC-2, human, extracellular domain; also called hCLEC-2-rFc2; human CLEC-2-rabbit Fc2; source: recombinant, generated as described previously [2]
T1 sequence (Q9P126 55-229): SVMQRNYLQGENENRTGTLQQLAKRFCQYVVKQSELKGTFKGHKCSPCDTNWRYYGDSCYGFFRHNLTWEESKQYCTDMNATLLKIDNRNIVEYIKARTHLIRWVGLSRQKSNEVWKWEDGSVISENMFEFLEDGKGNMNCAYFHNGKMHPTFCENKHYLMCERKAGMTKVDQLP

Sequence of native CLEC-2 on the surface of murine platelets (mouse (endogenous in platelets)) (Q9JL99 whole entry, the tested form may be a part): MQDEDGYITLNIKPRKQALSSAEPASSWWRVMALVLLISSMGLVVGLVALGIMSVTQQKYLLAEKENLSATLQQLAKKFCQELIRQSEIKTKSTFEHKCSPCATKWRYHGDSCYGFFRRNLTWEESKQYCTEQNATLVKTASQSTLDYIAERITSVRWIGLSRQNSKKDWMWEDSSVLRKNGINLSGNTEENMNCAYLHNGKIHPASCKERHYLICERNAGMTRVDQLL

rhodocytin (complex)
release of 5-HT or PDGF from washed murine WT platelets, percent of the total stored, maximum concentration of rhodocytin [1]: 60%

B1: GST-tagged S100A13 recombinant protein (natural protein, UniProt Q99584 1-98, looked up)
chain: MAAEPLTELEESIETVVTTFFTFARQEGRKDSLSVNEFKELVTQQLPHLLKDVGSLDEKMKSLDVNQDSELKFNEYWRLIGELAKEIRKKKDLKIRKK
notes: S100A13; also called S100A13-GST; recombinant S100A13-GST; source: bought: CycLex Co., Ltd. (Japan)
Kd [2]: 137 nM
